Assay results reported in paper PMC2688778 (Structure (London, England : 1993), 2009).

Columns and labels:
Assay in all cases: fluorescence anisotropy
RecE564 T675A = target: T1, RecE564 T675A (Escherichia coli K12, UniProt P15032 564-866, T675A)
T1 sequence: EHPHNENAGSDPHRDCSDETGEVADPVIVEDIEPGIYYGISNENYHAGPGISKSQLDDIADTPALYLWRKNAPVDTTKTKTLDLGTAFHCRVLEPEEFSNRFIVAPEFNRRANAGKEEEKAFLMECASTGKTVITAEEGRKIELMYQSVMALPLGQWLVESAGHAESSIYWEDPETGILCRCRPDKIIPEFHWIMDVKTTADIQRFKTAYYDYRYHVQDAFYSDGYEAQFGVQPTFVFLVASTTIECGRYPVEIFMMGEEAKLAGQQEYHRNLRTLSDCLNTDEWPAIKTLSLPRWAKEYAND

RecE564 H609A = target: T2, RecE564 H609A (Escherichia coli K12, UniProt P15032 564-866, H609A)
T2 sequence: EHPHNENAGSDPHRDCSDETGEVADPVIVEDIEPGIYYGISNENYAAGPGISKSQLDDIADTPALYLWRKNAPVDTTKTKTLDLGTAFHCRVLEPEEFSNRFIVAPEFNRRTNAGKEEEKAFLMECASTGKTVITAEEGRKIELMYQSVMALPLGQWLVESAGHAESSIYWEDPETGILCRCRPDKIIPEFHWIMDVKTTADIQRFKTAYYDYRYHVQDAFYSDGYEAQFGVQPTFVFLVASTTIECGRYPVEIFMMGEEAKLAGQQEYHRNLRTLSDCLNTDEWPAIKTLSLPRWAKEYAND

RecE564 F661A = target: T3, RecE564 F661A (Escherichia coli K12, UniProt P15032 564-866, F661A)
T3 sequence: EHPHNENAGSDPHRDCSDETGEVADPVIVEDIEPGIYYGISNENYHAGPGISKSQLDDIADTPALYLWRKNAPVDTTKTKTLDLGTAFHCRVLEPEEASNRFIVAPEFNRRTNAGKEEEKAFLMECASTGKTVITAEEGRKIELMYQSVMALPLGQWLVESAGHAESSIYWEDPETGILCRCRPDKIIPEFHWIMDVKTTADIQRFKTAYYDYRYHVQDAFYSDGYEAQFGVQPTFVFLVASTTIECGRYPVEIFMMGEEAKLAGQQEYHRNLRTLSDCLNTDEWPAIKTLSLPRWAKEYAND

RecE564 K761A = target: T4, RecE564 K761A (Escherichia coli K12, UniProt P15032 564-866, K761A)
T4 sequence: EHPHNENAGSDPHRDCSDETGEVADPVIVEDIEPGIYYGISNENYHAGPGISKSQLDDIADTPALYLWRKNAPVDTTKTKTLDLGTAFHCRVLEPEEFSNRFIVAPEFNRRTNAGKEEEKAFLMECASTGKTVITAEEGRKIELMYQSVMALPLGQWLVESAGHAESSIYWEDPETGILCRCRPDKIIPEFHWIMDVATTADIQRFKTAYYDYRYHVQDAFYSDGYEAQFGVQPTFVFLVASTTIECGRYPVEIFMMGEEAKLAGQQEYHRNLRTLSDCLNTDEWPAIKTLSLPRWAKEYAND

RecE564 W859A = target: T5, RecE564 W859A (Escherichia coli K12, UniProt P15032 564-866, W859A)
T5 sequence: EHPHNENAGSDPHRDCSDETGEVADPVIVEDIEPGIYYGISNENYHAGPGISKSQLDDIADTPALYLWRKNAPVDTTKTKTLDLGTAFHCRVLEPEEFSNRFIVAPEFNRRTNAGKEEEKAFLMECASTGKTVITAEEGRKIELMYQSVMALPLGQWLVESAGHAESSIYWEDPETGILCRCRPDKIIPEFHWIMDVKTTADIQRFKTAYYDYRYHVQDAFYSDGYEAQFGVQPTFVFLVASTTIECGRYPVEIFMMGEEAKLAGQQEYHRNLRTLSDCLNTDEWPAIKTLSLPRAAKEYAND

RecE564 R744A = target: T6, RecE564 R744A (Escherichia coli K12, UniProt P15032 564-866, R744A)
T6 sequence: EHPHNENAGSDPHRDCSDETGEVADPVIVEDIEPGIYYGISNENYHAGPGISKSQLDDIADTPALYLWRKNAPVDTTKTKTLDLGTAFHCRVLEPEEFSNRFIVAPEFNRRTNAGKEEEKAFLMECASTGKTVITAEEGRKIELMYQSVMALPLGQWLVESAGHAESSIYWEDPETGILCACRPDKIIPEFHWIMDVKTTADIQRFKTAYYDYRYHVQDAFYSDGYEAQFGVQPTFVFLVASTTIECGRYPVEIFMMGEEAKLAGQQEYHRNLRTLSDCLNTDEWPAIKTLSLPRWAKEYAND

B1: F25 (dsDNA)
DNA 1: TAGAGCTTAATTGCTGAATCTGGTG
DNA 2: CACCAGATTCAGCAATTAAGCTCTA
With B1 the Kd (RecE564 T675A) was 650 ± 30 nM, the Kd (RecE564 H609A) was 50 ± 3 nM and the Kd (RecE564 F661A) was 118 ± 8 nM. For the same binder, the Kd (RecE564 K761A) was 130 ± 10 nM, the Kd (RecE564 W859A) was 350 ± 20 nM and the Kd (RecE564 R744A) was 95 ± 8 nM.
